The values below come from patent US20210253709A1 (SUZHOU SMARTNUCLIDE BIOPHARMACEUTICAL, published 2021).

Experiment [1] deals with T1, PDL1-Fc fusion protein (human, UniProt Q9NZQ7 19-238, limits assumed).
T1 construct: Transiently expressed in HEK293 and used as the plate coat in the ELISAs; not shown: Fc part
In words: ELISA, plate coated with PDL1-Fc 0.5 ug/well, detection anti-his-HRP, OD405, 4-parameter fit (Plot1; same fit values as in Figure 2). As to the method:
(§1) The PDL1-Fc fusion protein was transiently expressed by HEK293 and purified by nickel column affinity chromatography. […] After washing, the anti-his horseradish peroxidase labeled antibody was added and incubated at room temperature for 1 hour. After washing, the developing solution was added, and the absorption value was read at wavelength of 405 nm. Application software SotfMaxPro v5.4 is used for data processing and mapping analysis.
(In general: ELISA stands for enzyme-linked immunosorbent assay.)

For experiment [2], the target named is T1, PDL1-Fc fusion protein. Nature of the experiment: ELISA, plate coated with PDL1-Fc 0.5 ug/well, detection anti-his-HRP, OD405, 4-parameter fit (Plot2). As to the method:
as §1

The target of experiment [3] is PD-L1 target protein (Biacore ligand) (UniProt Q9NZQ7 19-238, limits assumed). In words: SPR (Biacore T200), 25 C, 109 as analyte at 3.125-200 ng/ml. As to the method:
The experimental temperature of Biacore was 25° C. and the injection flow rate was 50 μl/min. The analyte was diluted with the HBS-EP+ buffer to a certain concentration, and was allowed to flow through the blank reference channel and the activated channel in turn. The signal value generated on the blank reference channel reflects the non-specific adsorption of the analyte on the chip, and the signal value generated on the activated channel reflects the specific binding between the analyte and the ligand. The analyte was introduced for 300 s, and then the HBS-EP+ buffer was introduced for 180 s to dissociate the analyte from the ligand. […] Different concentrations of analytes are repeatedly introduced and dissociated.

For orientation: EC50 means the concentration at which the effect is half-maximal. As usually defined, the Kd is the free concentration of one partner at which half of the binding sites on the other are occupied at equilibrium, for simple one-to-one binding. Low values mean tighter binding, high ones weaker binding. By koff is commonly meant the rate constant with which the complex falls apart. Low readings indicate a long-lived complex, high ones a short-lived complex. As a reminder, the kon is the second-order rate constant of association.

PD-L1 target protein (Biacore ligand), sequence (Q9NZQ7 19-238 limits assumed): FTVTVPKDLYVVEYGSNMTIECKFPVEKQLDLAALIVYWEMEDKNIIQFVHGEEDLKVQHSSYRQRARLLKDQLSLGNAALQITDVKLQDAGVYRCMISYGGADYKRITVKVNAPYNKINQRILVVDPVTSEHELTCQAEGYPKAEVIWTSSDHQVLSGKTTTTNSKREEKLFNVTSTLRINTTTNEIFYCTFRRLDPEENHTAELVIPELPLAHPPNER
T1 sequence (Q9NZQ7 19-238 limits assumed): as above

B1: 109-chis (VHH)
VHH: QVQLQESGGGSVQAGGSLRLSCTASGFSLDDSDMGWYRQARGNVCQLVSTIASDRSTYYTPSVKGRFTISHDRAKNTIYLQMNSLKPEDTAVYYCAAAPRLAYTTAMTCEGDFAYWGQGTQVTVSS
B1: a half-maximal effect with PDL1-Fc fusion protein [1] (EC50) was put at 2.89 ng/mL.

B2: ^69,71Ga-NOTA-109-chis (VHH)
VHH: B1 VHH
modifications: one or two NOTA groups (from p-SCN-Bn-NOTA) conjugated per molecule, each chelating ^69,71Ga; conjugated lysines not assigned
notes: also called chelated products of PD-L1 single domain antibody protein
Regarding B2, the response in the experiment with PDL1-Fc fusion protein [2] was half-maximal at 3.62 ng/mL (EC50).

B3: 109 heavy-chain single domain antibody (VHH)
VHH: B1 VHH
notes: Untagged form
In the case of B3, in experiment [3], the dissociation constant Kd stood at 1.73 nM, the koff came to 0.000438 s⁻¹ and the on-rate constant (kon) is 253000 M⁻¹ s⁻¹.
